The term IC50 denotes the midpoint of a concentration-inhibition curve. High values mean weaker potency in that assay, low ones greater potency in that assay.

Among the data in patent US20230192831A1 (published 2023) are IC50 values, retold here.

For the test, the target named is T1, human GREM1 (hGREM1-His; SEQ ID NO: 595) (human, UniProt O60565 25-184).
T1 construct: also called biotin-hGREM1-His; recombinant human GREM1 protein
T1 sequence: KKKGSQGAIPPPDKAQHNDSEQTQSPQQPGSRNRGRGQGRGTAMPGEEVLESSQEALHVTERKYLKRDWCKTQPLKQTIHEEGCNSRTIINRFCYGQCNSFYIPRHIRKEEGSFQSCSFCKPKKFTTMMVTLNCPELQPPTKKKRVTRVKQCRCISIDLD
As to the kind of experiment: competition ELISA, 100 pM biotin-hGREM1-His on plate-coated hBMP4. Background: ELISA stands for enzyme-linked immunosorbent assay.

Experimental: Data were analyzed using a sigmoidal dose-response model within Prism™ software. […] The absorbance values of the wells containing the highest concentration for each antibody were used to determine the percent maximum blocking.

B1: H4H6243P (antibody, human IgG4, V domains shown)
VH: QVQLVQSGAEVKKPGASVKVSCKVSGYTLTELSMHWVRQAPGKGLEWMGGFDPEDGETIYAQKFQDRVTMTEDTSTDTAYMELSSLRSEDTAVYYCVTDDYEILPEYPYNMDVWGQGTTVTVSS
VL: DIQMTQSPSSLSASVGDRVTITCRASQSISTYLNWYQQKPGKAPKLLIYAASSLQSGVPSRFSGSGSGTDFTLTIRSLQPEDFATYYCQQSHITPFTFGPGTKVDIK
notes: H4H = human IgG4 Fc
Regarding B1, the concentration for half-maximal inhibition (IC50) amounted to 7.2 pM.
